Our source for the IC50 values is patent US11639503B2, “Anti-chymase aptamer and use for same” (RIBOMIC INC., priority 2017, dated 2023).

Oligonucleotides are written 5' to 3', each unit as a sugar letter and its base; * is a phosphorothioate linkage, no mark a phosphodiester; rarer units and linkages stand in square brackets, end groups in braces. Plain capitals give the bases only. r = 2'-OH (RNA); f = 2'-fluoro

In data set [1] the target is T1, chymase (recombinant, manufactured by SIGMA) (Homo sapiens, UniProt P23946).
T1 construct: purchased SIGMA
T1 sequence (P23946 22-247): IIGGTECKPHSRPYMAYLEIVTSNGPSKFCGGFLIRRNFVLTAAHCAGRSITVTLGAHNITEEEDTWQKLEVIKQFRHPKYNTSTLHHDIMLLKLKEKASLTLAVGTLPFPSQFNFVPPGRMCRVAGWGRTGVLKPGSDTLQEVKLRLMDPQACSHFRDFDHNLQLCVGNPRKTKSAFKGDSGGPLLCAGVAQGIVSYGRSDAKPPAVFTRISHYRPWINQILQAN
The data set can be described thus: chymase enzyme activity inhibition, synthetic substrate Suc-Ala-Ala-Pro-Phe-MCA. The format is biochemical. Here is the method:
A first method employs a synthetic substrate. A useful chymase substrate is Suc-Ala-Ala-Pro-Phe-MCA (4-methylcoumaryl-7-amide group) (manufactured by Peptide Institute, Inc.), which contains the 4-amino acid peptide “Ala-Ala-Pro-Phe” (SEQ ID NO: 41), a standard substrate for chymotrypsin-like proteases.
The assay is performed using a 96-well plate (F16 Black Maxisorp Fluoronunc, manufactured by Nunc), with a reaction mixture volume of 100 μL, in a buffer solution (solution C; see Example 2 below). First, each nucleic acid is prepared in solution C to obtain 50 μL solutions. After 10 μL of the 1 mM substrate prepared in solution C is added, the plate is set to the microplate reader SpectraMax190 (manufactured by Molecular Devices Corporation), and incubated at 37° C. for 5 minutes. Separately, 0.05 μg of chymase (recombinant, manufactured by SIGMA) is diluted in solution C, and 40 μL of this dilution is incubated at 37° C. for 5 minutes. The chymase solution is added to the mixture of the nucleic acid and substrate to initiate an enzyme reaction. The plate containing the reaction mixture is set to the microplate reader SpectraMax190 (manufactured by Molecular Devices Corporation), and examined for time-dependent changes in the fluorescence intensity at 37° C. for 5 minutes (excitation wavelength 380 nm, detection wavelength 460 nm). A linear approximation of the increase in the fluorescence of the AMC (7-amino-4-methylcoumarine) released from the substrate by chymase activity is generated, and its slope is taken as the initial reaction velocity. For control, samples are treated and analyzed in the same manner in two cases: use of a nucleic acid pool containing a random sequence of 30 or 40 nucleotides (negative control), and use of chymostatin, a known chymotrypsin-like serine protease inhibitor (positive control). Taking the initial reaction velocity without the nucleic acid and inhibitor as a 100% enzyme activity, the inhibitory rate for each test substance is calculated, and the inhibitor concentration required to cause a 50% inhibition of the enzyme activity (IC50) is determined.
Whether the nucleic acids shown by SEQ ID NO: 1-8 inhibit the enzyme activity of chymase was determined as described below. The chymase substrate used was Suc-Ala-Ala-Pro-Phe-MCA (manufactured by Peptide Institute, Inc.), which contains the 4-amino-acid peptide Ala-Ala-Pro-Phe, a standard substrate for chymotrypsin-like proteases. Here, Suc is a protecting succinyl group, and MCA is a 4-methylcoumaryl-7-amide group; upon cleavage of the C-terminal side of phenylalanine, AMC (7-amino-4-methylcoumarine) is released. By detecting the fluorescence of this AMC, the enzyme activity of chymase can be determined. The assay was performed using a 96-well plate (F16 Black Maxisorp Fluoronunc, manufactured by Nunc), with a reaction mixture volume of 100 μL, in solution C as a buffer solution. Here, the solution C is a mixed solution of 145 mM sodium chloride, 5.4 mM potassium chloride, 1.8 mM calcium chloride, 0.8 mM magnesium chloride, 20 mM Tris (pH 7.6), and 0.05% Tween20. First, nucleic acid was serially diluted in solution C to obtain 50 μL solutions. After 10 μL of the 1 mM substrate prepared in solution C was added thereto, the plate was set to the microplate reader SpectraMax190 (manufactured by Molecular Devices Corporation), and incubated at 37° C. for 5 minutes. […] The chymase solution was added to the mixture of the nucleic acid and substrate to initiate an enzyme reaction. The final chymase concentration in the reaction mixture was 16.7 nM, the final substrate concentration being 100 μM. The plate containing the reaction mixture was set to the microplate reader SpectraMax190 (manufactured by Molecular Devices Corporation), and examined for time-dependent changes in the fluorescence intensity at 37° C. for 5 minutes (or 30 minutes) (excitation wavelength 380 nm, detection wavelength 460 nm). […]

The target in data set [2] is T2, chymase purified from human skin mast cell (native, Calbiochem) (Homo sapiens, UniProt P23946).
T2 construct: Here, the native is chymase purified from human skin mast cell; purchased Calbiochem; host or cells: human skin mast cell (tissue-derived)
T2 sequence (P23946 22-247): T1 sequence (P23946 22-247)
As to the kind of experiment: chymase enzyme activity inhibition, native substrate angiotensin I (His-Leu fluorescence). The settings on record: Table 2; substrate angiotensin I 50 μM, chymase 0.5 nM, 37° C. 90 min; mean of 2 or 3 measurements. The format is biochemical. On the procedure:
A second method of evaluation employs a native substrate. A useful native substrate for chymase is angiotensin I. Here, His-Leu, a peptide fragment released upon degradation of angiotensin I, is fluorescently derivatized, and the fluorescence intensity therefrom is quantified.
In the assay, an enzyme reaction is carried out in 50 μL of solution C. First, 0.3-0.75 ng of chymase (recombinant, manufactured by SIGMA; or native, manufactured by Calbiochem) is diluted in solution C to obtain 5 μL chymase solution. Each nucleic acid is prepared in solution C to obtain 25 μL solutions. 5 μL of each chymase dilution and 25 μL of each nucleic acid solution are mixed, and then the mixture is incubated at 37° C. for 5 minutes. Separately, 20 μL of 125 μM angiotensin I (manufactured by Peptide Institute, Inc.) is prepared in solution C and incubated at 37° C. for 5 minutes. The angiotensin I solution is added to the mixture of chymase and nucleic acid, and the enzyme reaction is initiated. After the reaction was allowed to proceed at 37° C. for 90 minutes, 25 μL of ice-cooled 30% trichloroacetic acid solution is added to terminate the reaction. The entire mixture is centrifuged at 4° C., 14000 rpm for 10 minutes, and 30 μL of the resulting supernatant is used for the subsequent reaction for fluorescent derivatization.
After 30 μL of the supernatant is added to a 96-well plate (Black, manufactured by Costar), 15 μL of 2% o-phthalaldehyde (manufactured by SIGMA) solution in methanol and 170 μL of 0.3M NaOH solution are mixed in each well, and the plate is allowed to stand at room temperature for 10 minutes. Subsequently, 25 μL of 3M HCl solution is added to terminate the reaction. The plate is set to the microplate reader SpectraMax190 (manufactured by Molecular Devices Corporation), and the fluorescence intensity is determined at an excitation wavelength of 355 nm and a fluorescence wavelength of 460 nm.
For control, samples are treated and analyzed in the same manner in two cases: use of SEQ ID NO: 58 (negative control) and use of chymostatin, a known chymotrypsin-like serine protease inhibitor (positive control). In both cases, fluorescence intensity obtained at 0 minute reaction time serves as a blank determination. Taking the fluorescence intensity detected with the addition of an equal volume of solution C, in place of each nucleic acid, in the chymase enzyme reaction as 100%, the inhibitory rate for each test substance is calculated, and the inhibitor concentration required to cause a 50% inhibition of the enzyme activity (IC50) is determined.
Whether the nucleic acids shown by SEQ ID NO: 9 and 10 inhibit the enzyme activity of chymase was determined by the following method. Angiotensin I is converted by chymase to angiotensin II, during which a peptide fragment His-Leu is released. Since the peptide His-Leu is fluorescently derivatized by o-phthalaldehyde, its fluorescence intensity can be quantitatively measured.
The total volume of solution for an enzyme reaction in the assay was set to 50 μL, and the reaction was performed in solution C buffer. At first, native (manufactured by Calbiochem) was diluted with solution C to give 5 μL thereof. Here, the native is chymase purified from human skin mast cell. The nucleic acid was serially diluted with solution C at a concentration of 0.0027-2 μM to give 25 μL thereof. The chymase solution (5 μL) and the nucleic acid solution (25 μL) were mixed, and the mixture was incubated at 37° C. for 5 min. On the other hand, […] angiotensin I (manufactured by PEPTIDE INSTITUTE, INC.) was prepared in solution C to give 20 μL thereof, which was incubated at 37° C. for 5 min. The angiotensin I solution was added to a mixture of chymase and nucleic acid to start an enzyme reaction. The final chymase concentration of the reaction solution was 0.5 nM, and the final substrate concentration was 50 μM. […]

Where [3] appears, read: Table 5, MCA substrate, amount of chymase 0.005 μg instead of 0.05 μg, one measurement.
[4] abbreviates: Table 1, substrate Suc-Ala-Ala-Pro-Phe-MCA 100 μM, chymase 0.05 μg (16.7 nM), 37° C., mean of 2 or 3 measurements.

On to “21 (GGCAGAUGAUCGGACAUAACAGGUUAGAUAGAGUUAAAAACCUGGGGUGUCAA; 2'-fluoro at CU, RNA at AG, backbone not given here) [compound 21]”, for which, in data set [1] (setting [3]), the IC50 is 5.7 nM.

As for “22 (GGCAGAUGAUCGGACAUAACAGUUAGAUAGAGUUAAAAACUGGGGUGUCAA; 2'-fluoro at CU, RNA at AG, backbone not given here) [compound 22]”, the half-maximal inhibitory concentration (IC50) in data set [1] (setting [3]) was 5 nM. The same measure, in the same setting: the result for “23 (GGCAGAUGAUCGGACAUAACAGUAGAUAGAGUUAAAACUGGGGUGUCAA; 2'-fluoro at CU, RNA at AG, backbone not given here) [compound 23]” reads 7.8 nM. On the same count and under the same terms, the result for “24 (GGCAGAUGAUCGGACAUAACAUAGAUAGAGUUAAAAUGGGGUGUCAA; 2'-fluoro at CU, RNA at AG, backbone not given here) [compound 24]” reads 3.7 nM. Take “25 (GGCAGAUGAUCGGACAUAACAAGAUAGAGUUAAAUGGGGUGUCAA; 2'-fluoro at CU, RNA at AG, backbone not given here) [compound 25]”: in data set [1] (setting [3]), the IC50 was 5.8 nM.

B1: 1 (nucleic acid)
chain: rGrGrGrArGfCrArGrGrArGrArGrArGrGfUfCrArGrAfUrGrArGfCrAfUrGfCfUfUfUfUfUrGrGfUrArAfCfCrGrAfUrArAfUrGrGrGrGrGfCfCfUrAfUrGfCrGfUrGfCfUrArGfUrGfUrGrA
modifications: aptamer
In the case of B1, the IC50 in data set [1] (setting [4]) stood at 41 nM.

B2: 8 (nucleic acid)
chain: rGrGrGrArGfCrArGrGrArGrArGrArGrGfUfCrArGrAfUrGrAfUfUrGrAfCrGrAfCfUrAfUrArGrGfUrArAfCfCfUfUfUrAfCrGrGrGrGrGfCfCfUrAfUrGfCrGfUrGfCfUrArGfUrGfUrGrA
modifications: aptamer
On to B2, for which the concentration for half-maximal inhibition (IC50) in data set [1] (setting [4]) was 35 nM.

B3: 4 (nucleic acid)
chain: rGrGrGrArGfCrArGrGrArGrArGrArGrGfUfCrArGrAfUrGfUrArAfCfUfCfUrAfUfUrGrArGrGrGrGfCrAfUfCrArGfCrAfCrArGfUrArGfCfCfUrAfUrGfCrGfUrGfCfUrArGfUrGfUrGrA
modifications: aptamer
B3: the IC50 in data set [1] (setting [4]) stood at 10.8 nM.

B4: 7 (nucleic acid)
chain: rGrGrGrArGfCrArGrGrArGrArGrArGrGfUfCrArGrAfUrGfUfUfUrGrGfUrArGfUrArAfCfUrGrGrArAfUrArGrGrGrGfCfUrAfCrArGrGfCfCfUrAfUrGfCrGfUrGfCfUrArGfUrGfUrGrA
modifications: aptamer
In the case of B4, the IC50 in data set [1] (setting [4]) was found to be 52 nM.

B5: 6 (nucleic acid)
chain: rGrGrGrArGfCrArGrGrArGrArGrArGrGfUfCrArGrAfUrGfUfCrAfUrGrAfCfUfUrAfUrArGrGfUrArAfCfCrGrAfUrArAfUrGrGrGrGrGfCfCfUrAfUrGfCrGfUrGfCfUrArGfUrGfUrGrA
modifications: aptamer
Regarding B5, in data set [1] (setting [4]), the half-inhibitory concentration (IC50) is 5.5 nM.

B6: 10 (nucleic acid)
chain: rGrGrGrArAfCrGrArArGfCrGrAfCrArGrAfCfCrGrArAfUfCrArGrArArGfUfUfCrArAfCrAfUrGrGrAfCrAfUrArAfCrAfUfCrGrAfUrGrGrGrGfUrGfUfCrArArGfUrAfCfUrGrAfCrGrAfCrArGrA
In turn, B6 returned a 50% inhibitory concentration (IC50) in data set [2] of 0.43 nM.

B7: 3 (nucleic acid)
chain: rGrGrGrArGfCrArGrGrArGrArGrArGrGfUfCrArGrAfUrGrAfUrArAfCfCrArGfUfUrGrGrGrGrGrGfUfCrArAfUfUrAfCrAfUrGrGrGrAfCfCfUrAfUrGfCrGfUrGfCfUrArGfUrGfUrGrA
modifications: aptamer
Take B7: in data set [1] (setting [4]), the IC50 worked out at 26 nM.

B8: 9 (nucleic acid)
chain: rGrGrGrArAfCrGrArArGfCrGrAfCrArGrAfCrGfUfUfCfCrArGfCrGfUfCfUrArAfUrAfCrGfUrGrArAfUrArAfCfCfUrGrAfUfCrGfUrArGrGrGrGrGfUfUfCrArArGfUrAfCfUrGrArGrGrAfCrArGrA
The molecule B8 displayed a 50% inhibitory concentration (IC50) in data set [2] of 0.22 nM.

B9: 5 (nucleic acid)
chain: rGrGrGrArGfCrArGrGrArGrArGrArGrGfUfCrArGrAfUrGrAfUrGrAfCfCrGrAfUfUrAfUrArGrGfUrArAfCfCrAfCfUfUrArGrGrGrGrGfCfCfUrAfUrGfCrGfUrGfCfUrArGfUrGfUrGrA
modifications: aptamer
As for B9, the IC50 in data set [1] (setting [4]) stood at 7 nM.
